Data from patent US20260265717A1.

Target: T1, MG64-1 Cas12k expressed with an N-terminal Twin Strep tag and an HRV3C protease site and a C-terminal 2xNLS tag
T1 sequence: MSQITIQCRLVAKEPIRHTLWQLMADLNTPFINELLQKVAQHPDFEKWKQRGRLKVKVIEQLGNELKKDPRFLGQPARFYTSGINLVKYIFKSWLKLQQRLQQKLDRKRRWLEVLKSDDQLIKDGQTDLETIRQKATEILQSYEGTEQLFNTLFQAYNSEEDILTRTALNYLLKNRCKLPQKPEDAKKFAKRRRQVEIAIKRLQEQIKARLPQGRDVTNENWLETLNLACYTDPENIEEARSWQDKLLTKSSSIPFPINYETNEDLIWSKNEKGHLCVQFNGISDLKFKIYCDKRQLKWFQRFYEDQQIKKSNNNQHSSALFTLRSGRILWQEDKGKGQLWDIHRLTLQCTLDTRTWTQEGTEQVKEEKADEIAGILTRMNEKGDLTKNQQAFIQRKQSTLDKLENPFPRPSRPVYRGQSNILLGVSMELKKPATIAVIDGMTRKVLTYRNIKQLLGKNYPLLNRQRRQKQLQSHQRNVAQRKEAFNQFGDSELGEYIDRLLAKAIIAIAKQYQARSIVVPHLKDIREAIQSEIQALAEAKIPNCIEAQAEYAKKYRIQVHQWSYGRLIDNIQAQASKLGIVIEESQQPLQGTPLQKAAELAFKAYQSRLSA
Test: mass spectrometry of tryptic peptides from SEC-eluted Cas12k Strep pulldown complex; emPAI is a relative measure of abundance

B1: MG64-1 TnsC (protein)
chain: MTIQEAQAVAKQLGDIQLTSEKLQAEIQRLNRKTVVTLSHVEALHNWLEGKRQAKQSCRVVGESRTGKTIACNAYRLRHKPIQTPGKPPIVPVVYIQVTQECGAKDLFGAIIEHLKYQMTKGTVAEIRQRTFKVLQRCGVEMLIIDEADRLKPKTFAEVRDIFDKLNIAVVLVGTDRLDAVIKRDEQVYNRFRACHRFGKLAGDEFSQTVNIWERQVLKLPVASNLSSKRMLKILGQATGGYLGLLDMILRESAIRALKKGLQKIDLDTLKEVTEEYR
B1 showed an emPAI of 2.43.

B2: MG64-1 TniQ (protein)
chain: MESREIQPWWFLVEPLAGESISHFLGRFRRENELTVTMMGKITGLGGTITRWEKFRFIPIPTEEELTALSEVVQVEVERLWQMFPPKGVGMKHQPIRLCGACYEEERCHKIEWQLKTTQFCSQHGLTLLSECPNCGARFQFPALWVNGWCHRCFLTFGEMVEGQSNKKKYL
For B2, the emPAI was 1.61.
